Consider six molecules from patent publication US20230050972A1 (MOMENTA PHARMACEUTICALS, published 2023).

“And” between values parts separate entries of the source, which are not always exact repeats. Identical values can stand only once.

Assay [1] has as its target T1, in-house generated I domain of α11β1 (human, UniProt Q9UKX5 159-349, limits assumed).
T1 construct: domain: I domain; also called human α11β1 I domain; α11β1 I Domain
T1 sequence (looked up): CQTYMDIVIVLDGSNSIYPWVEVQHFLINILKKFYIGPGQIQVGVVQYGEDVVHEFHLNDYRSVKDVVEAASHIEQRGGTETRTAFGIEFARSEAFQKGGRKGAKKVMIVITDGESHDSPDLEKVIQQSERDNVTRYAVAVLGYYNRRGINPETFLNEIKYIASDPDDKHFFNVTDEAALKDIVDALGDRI
In words: ELISA on the human α11β1 I domain. (In general: ELISA stands for enzyme-linked immunosorbent assay.)

In assay [2] the target is T2, human α11β1 expressed on the surface of CHO-K1 cells (human, UniProt Q9UKX5 23-1188). Put plainly: FACS on CHO-K1 hu α11β1 cells, estimated EC50. How it is done: (§1) 200,000 cells (wild-type CHO-K1 cells or CHO-K1 cells expressing human α11) were incubated with each antibody at desired concentrations in FACS buffer for 30 min at 4° C. Then, the cells were washed with FACS buffer and incubated with secondary antibody at 1:100 dilution for 30 minutes at 4° C. Cells were then washed and fixed with 1% PFA in PBS for 20 minutes at room temperature; washed again and read on a cytometer in FACS buffer.
T2 sequence (Q9UKX5 23-1188): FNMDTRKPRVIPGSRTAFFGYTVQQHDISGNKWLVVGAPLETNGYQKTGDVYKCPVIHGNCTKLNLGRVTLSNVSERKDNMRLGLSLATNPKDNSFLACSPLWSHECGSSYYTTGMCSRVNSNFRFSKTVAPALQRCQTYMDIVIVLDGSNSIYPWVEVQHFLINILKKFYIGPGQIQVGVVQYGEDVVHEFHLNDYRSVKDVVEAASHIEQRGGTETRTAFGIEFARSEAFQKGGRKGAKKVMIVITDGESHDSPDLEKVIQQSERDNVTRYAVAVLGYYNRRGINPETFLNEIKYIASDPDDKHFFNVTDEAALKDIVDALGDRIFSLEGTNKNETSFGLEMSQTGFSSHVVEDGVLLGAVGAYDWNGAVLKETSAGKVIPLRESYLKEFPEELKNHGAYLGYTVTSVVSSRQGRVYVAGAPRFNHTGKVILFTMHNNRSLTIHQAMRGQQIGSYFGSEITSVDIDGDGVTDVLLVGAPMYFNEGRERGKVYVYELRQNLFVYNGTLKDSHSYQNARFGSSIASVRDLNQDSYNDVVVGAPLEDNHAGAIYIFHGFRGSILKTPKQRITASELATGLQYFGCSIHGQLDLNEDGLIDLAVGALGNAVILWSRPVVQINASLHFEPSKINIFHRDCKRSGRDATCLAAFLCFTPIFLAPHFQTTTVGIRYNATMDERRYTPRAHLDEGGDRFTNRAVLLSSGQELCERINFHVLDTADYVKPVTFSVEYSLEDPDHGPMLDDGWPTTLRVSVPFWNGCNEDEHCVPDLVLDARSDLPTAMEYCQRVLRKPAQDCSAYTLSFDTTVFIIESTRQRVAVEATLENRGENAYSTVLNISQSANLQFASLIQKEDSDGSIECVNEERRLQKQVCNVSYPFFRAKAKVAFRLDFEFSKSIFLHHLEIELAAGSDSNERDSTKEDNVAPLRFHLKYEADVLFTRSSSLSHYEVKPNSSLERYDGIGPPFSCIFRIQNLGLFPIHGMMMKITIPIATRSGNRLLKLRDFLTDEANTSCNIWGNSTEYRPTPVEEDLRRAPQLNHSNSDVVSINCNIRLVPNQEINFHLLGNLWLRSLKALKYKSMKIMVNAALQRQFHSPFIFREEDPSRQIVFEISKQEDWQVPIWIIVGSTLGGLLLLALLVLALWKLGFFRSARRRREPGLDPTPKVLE
Binding EC₅₀ was estimated using data from Fluorescence-activated cell sorting (FACS) performed with CHO-K1 hu α11β1 cells. Four out of six mAbs tested had EC₅₀ results in the low nanomolar range (8-P20, 8-G15, 8-J17, 8-l14), while the remaining two mAbs were not as potent (9-G05 and 9-E16; both I domain binders).

Assay [3] has as its target T2, human α11β1 expressed on the surface of …. Put plainly: FACS titration on Human CHO-α11 cells. How it is done:
as §1

The target of assay [4] is T3, recombinant human α11β1 (human, UniProt Q9UKX5 23-1141; P05556 21-728).
T3 construct: Coated in ELISA; ELISA and SPR material treated as one molecule; also called HIS-tagged human α11β1; integrin alpha 11 beta 1
T3 sequence (Q9UKX5 23-1141 limits assumed, chain 1 of 2): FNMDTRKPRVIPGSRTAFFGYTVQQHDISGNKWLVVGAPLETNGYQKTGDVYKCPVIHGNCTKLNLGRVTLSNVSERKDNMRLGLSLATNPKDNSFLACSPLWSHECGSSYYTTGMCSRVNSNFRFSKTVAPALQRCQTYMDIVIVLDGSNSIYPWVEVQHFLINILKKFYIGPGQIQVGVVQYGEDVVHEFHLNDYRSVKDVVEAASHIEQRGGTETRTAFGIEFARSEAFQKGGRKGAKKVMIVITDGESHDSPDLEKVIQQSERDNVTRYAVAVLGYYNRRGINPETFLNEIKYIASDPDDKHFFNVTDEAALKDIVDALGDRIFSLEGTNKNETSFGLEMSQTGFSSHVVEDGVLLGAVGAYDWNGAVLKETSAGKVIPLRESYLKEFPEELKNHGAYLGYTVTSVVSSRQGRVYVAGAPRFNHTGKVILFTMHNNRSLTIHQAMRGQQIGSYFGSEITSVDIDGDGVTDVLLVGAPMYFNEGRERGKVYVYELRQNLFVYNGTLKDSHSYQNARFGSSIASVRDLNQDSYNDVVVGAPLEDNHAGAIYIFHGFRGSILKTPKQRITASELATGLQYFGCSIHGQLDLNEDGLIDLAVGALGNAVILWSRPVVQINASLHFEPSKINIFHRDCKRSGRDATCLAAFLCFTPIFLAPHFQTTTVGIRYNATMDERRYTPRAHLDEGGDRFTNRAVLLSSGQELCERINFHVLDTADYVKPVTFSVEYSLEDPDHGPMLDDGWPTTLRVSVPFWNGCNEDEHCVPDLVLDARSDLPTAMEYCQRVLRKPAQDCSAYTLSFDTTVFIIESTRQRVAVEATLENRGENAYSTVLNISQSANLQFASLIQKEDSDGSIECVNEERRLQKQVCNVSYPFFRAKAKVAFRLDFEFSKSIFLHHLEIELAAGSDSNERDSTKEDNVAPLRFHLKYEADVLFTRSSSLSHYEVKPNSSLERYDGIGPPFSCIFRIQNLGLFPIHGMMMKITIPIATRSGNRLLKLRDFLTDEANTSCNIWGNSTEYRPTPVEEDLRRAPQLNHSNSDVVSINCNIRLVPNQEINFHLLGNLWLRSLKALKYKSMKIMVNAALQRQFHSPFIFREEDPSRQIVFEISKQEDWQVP
T3 sequence (P05556 21-728 limits assumed, chain 2 of 2): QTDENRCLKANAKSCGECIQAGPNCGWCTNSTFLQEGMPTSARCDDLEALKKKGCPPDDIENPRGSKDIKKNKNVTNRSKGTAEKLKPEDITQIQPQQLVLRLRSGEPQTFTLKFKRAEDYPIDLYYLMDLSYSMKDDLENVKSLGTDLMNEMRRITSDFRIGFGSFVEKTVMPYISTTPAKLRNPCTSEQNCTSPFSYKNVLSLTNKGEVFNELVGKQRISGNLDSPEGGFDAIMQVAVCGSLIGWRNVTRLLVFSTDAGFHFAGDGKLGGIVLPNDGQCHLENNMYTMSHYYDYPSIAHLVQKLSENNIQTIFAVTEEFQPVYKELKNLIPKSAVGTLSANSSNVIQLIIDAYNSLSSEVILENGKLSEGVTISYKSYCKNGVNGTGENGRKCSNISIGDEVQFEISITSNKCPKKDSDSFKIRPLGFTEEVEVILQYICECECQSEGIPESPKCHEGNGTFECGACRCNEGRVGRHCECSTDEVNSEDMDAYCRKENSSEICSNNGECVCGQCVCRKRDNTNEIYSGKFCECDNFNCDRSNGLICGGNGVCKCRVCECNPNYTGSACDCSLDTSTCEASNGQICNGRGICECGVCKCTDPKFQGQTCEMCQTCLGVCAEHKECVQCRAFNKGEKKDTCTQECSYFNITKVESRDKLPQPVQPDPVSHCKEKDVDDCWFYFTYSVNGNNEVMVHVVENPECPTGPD
In words: ELISA, plate coated with recombinant human α11β1. How it is done: (§2) 0.25 μg/mL of target antigen (recombinant human or mouse α11β1) was plated in a 96-well plate over night at 4° C. Plates were washed (PBS with 0.1% Tween-20), blocked (PBS with 2% BSA and 0.05% Tween-20) for 1 hour at room temperature and incubated with a range of antibody concentrations for 1 hour at room temperature. Subsequently, plates were washed and incubated with biotinylated anti-rabbit/mouse/human IgG in a 1:1000 dilution buffer and incubated for 1 hour at room temperature. After washing the plates, Streptavidin HRP was added at 1:200 in dilution buffer and incubated for 1 hour at room temperature. Ultra TMB ELISA substrate solution was added and the plates incubated for 5 minutes on a plate shaker. The reaction was stopped by adding stop solution to each well and plates were read at 450 nm.

Assay [5] concerns the target T4, recombinant mouse α11β1 (mouse, UniProt P61622 23-1141; P09055 21-728, limits assumed).
T4 construct: also called murine α11β1
In words: ELISA, plate coated with recombinant mouse α11β1. How it is done: as §2

For assay [6], the target named is T3, recombinant human α11β1. Put plainly: SPR, HIS-tagged human α11β1 captured by anti-HIS, antibody as analyte, single-cycle kinetics. How it is done: (§3) The affinity of antibodies for human α11β1 was measured by surface plasmon resonance assay (SPR). Affinity was measured at pH 7.6 and 25° C. with a Biacore T200 instrument. Anti-HIS antibody was immobilized on the SPR sensor surface using EDC/NHS covalent attachment. HIS-tagged human α11β1 was captured on the sensor surface and a single-cycle kinetics assay was used. Increasing concentrations of test antibody were injected in series over the sensor-bound α11β1. Dissociation was monitored for 1000 seconds. A sensor surface with only anti-HIS antibody and a series of blank injections were used to double-reference subtract the data. A 1:1 Langmuir model was fit to the data to estimate the kinetic association and dissociation constants. The affinity (equilibrium dissociation constant) of the interaction was calculated by dividing the kinetic dissociation constant by the kinetic association constant. Between injection cycles α11β1 and bound antibody were removed with an injection of 10 mM glycine at pH 1.5.
The binding affinity of antibodies for the α11β1 Headpiece and α11β1 I Domain as measured by SPR is shown in FIG. 10A and FIG. 10B, respectively.

Assay [7] addresses T3, recombinant human α11β1. Put plainly: SPR (Biacore T200), HIS-tagged human α11β1 captured on anti-HIS, single-cycle kinetics, 1:1 Langmuir fit. How it is done:
as §3
On the technique in general: In SPR one partner is held on a chip, and binding of the other changes the refractive index at the surface.

Assay [8] addresses T1, in-house generated I domain of α11β1. In words: ELISA on the human α11β1 I domain. The source holds these as a separate data set.
For the next assay, the target named is Mouse CHO-α11 (mouse, UniProt P61622). In words: FACS titration on Mouse CHO-α11 cells.
Assay [9] has as its target T5, α11β1 on human myofibroblasts (MF) (human, UniProt Q9UKX5 23-1188; P05556 21-798).
T5 construct: whole, on cells
Put plainly: FACS titration on human myofibroblasts. How it is done: Human Pulmonary Fibroblasts (ScienCell) were cultured in complete Fibroblast Growth Medium (ScienCell) until 80% confluent in T-150 flasks. Cells were washed and harvested using Accutase. Cells were seeded into T-150 flasks at 7,500 cells/cm² in complete FGF and cultured for 72 hours. Cells were then washed and starved in serum reduced medium for 24 hours. After starvation, cells were treated with TGFβ-1 (R&D Systems) for 72 hours. Cells were harvested using Accutase and seeded in 96-well conical bottom plates. Cells were blocked with Heat Inactived Fetal Bovine Serum (Gibco) for 30 minutes at 4° C. Cells were then incubated with anti-α11 antibodies at the doses described in each figure for 30 minutes at 4° C. A human anti-α11 antibody (Creative BioLabs) was included as a positive control as well as the appropriate IgG isotype negative controls. Cells were washed twice and incubated with PE conjugated secondary antibodies specific to the IgG class of the anti-α11 antibodies being tested for 30 minutes at 4° C. Cells were washed twice and fixed in 1% PFA for 30 minutes. Cells were acquired on a FACS Verse […]. Data were analyzed by gating on single cells and determining the geometric Mean Fluorescence Intensity (gMFI) in the PE channel for each sample.

The target of assay [10] is T1, in-house generated I domain of α11β1. In words: SPR, single-cycle injections of 33, 100 and 300 nM over the a11b1 I Domain.
Assay [11] deals with T2, human α11β1 expressed on the surface of …. In words: cell-based or functional assay.
The target of assay [12] is T4, recombinant mouse α11β1. Put plainly: ELISA on recombinant mouse α11β1. In a few lines: (§4)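 Direct ELISA against human or mouse α11β1 coated at 0.25 μg/mL; antibody titration 1 h at room temperature, HRP-based colorimetric read-out at 450 nm.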
Assay [13] concerns the target T5, α11β1 on human myofibroblasts (MF). Put plainly: FACS on human myofibroblasts.
The target of assay [14] is T3, recombinant human α11β1. Put plainly: ELISA on recombinant human α11β1. In a few lines:
as §4

Assay [15] deals with T2, human α11β1 expressed on the surface of …. Put plainly: cell-based or functional assay. This is another data set of the same source.

T4 sequence (P61622 23-1141 limits assumed, chain 1 of 2): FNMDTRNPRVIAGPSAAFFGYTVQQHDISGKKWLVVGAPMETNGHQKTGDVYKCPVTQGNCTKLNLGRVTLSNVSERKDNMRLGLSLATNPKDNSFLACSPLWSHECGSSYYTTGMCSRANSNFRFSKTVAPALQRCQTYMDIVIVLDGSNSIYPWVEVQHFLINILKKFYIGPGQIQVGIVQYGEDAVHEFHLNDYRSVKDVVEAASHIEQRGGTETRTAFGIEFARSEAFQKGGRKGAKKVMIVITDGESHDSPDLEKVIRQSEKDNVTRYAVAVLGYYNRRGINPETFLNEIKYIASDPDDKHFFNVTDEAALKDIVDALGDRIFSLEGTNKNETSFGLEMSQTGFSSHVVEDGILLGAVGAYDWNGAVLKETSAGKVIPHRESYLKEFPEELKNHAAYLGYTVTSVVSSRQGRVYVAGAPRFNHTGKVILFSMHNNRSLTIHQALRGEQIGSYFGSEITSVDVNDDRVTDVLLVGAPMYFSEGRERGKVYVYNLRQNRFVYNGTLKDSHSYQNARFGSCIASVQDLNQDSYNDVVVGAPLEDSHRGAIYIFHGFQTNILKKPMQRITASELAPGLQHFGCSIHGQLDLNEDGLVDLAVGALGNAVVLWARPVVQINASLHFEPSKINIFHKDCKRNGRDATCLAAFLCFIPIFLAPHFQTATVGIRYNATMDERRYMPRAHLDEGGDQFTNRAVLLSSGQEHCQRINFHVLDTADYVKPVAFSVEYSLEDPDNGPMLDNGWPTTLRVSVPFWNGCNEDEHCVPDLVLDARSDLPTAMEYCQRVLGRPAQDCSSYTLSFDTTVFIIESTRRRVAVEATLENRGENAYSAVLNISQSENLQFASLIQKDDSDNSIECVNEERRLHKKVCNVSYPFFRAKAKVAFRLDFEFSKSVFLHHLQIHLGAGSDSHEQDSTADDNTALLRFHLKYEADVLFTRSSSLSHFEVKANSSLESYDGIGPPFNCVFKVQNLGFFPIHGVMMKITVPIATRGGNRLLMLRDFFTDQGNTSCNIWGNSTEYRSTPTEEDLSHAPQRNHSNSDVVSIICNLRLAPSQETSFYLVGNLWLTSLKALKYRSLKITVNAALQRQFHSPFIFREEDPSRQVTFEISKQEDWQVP
T4 sequence (P09055 21-728 limits assumed, chain 2 of 2): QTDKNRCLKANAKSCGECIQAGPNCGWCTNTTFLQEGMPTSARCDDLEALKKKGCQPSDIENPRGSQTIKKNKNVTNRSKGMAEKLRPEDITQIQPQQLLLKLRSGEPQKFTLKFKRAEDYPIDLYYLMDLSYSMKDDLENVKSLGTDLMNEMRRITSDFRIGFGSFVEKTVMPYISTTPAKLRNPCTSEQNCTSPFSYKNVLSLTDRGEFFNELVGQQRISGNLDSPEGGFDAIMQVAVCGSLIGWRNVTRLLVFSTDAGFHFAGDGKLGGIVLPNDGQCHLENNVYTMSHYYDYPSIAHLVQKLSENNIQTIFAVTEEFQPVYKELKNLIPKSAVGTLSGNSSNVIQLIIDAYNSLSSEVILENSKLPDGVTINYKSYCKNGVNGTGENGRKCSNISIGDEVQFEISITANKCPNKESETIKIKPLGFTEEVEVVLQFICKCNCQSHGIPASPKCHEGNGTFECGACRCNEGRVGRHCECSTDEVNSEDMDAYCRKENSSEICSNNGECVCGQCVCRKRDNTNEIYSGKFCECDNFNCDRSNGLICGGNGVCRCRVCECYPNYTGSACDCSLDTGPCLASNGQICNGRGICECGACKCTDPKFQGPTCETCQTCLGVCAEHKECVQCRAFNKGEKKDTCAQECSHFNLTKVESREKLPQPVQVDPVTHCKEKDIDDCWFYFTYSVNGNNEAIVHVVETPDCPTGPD

B1: 9-G05 (antibody, V domains shown)
VH: EVQLQQSGPELVKPGASVKIPCKASGYTFPDYNMDWVKQSHGKSLEWIGYINPDNGGTIYNQKFKGKATLTVDKSSSTAYMELRSLTSEDTAVYYCARLDSSGYGYYAMDYWGQGTSVTVSS
VL: DIVLTQSPASLAVSLGQRATISCRASESVDNYGISFMHWYQQKPGQPPKLLIYRASNLDSEIPARFSGSGSRTDFTLTIDPVETDDVATYYCQQSYKDPRTFGGGTKLEIK
notes: mouse hybridoma IgG
On to B1, for which the results for the “EC50 (read off the curve)” value (in assay [1]; in the assay with recombinant human α11β1 [4]; with recombinant mouse α11β1 [5]) were ~0.3 ng/mL, ~0.01 µg/mL and ~0.03 µg/mL, respectively. Moreover, the EC50 in [2] was 21 µg/mL and 140 nM; in [3], 187 nM. Moreover, in the assay with recombinant human α11β1 [6], the Kd worked out at 2.85 nM. Further, the koff with recombinant human α11β1 [7] came out at 4.99e-05 s⁻¹. The kon in the assay with recombinant human α11β1 [7] stood at 17500 M⁻¹ s⁻¹.

B2: 40G10H11 (antibody, V domains shown)
VH: AVQLVESGGGLVQPGRSLKLSCAASRITFTDYYMAWVRQAPTKGLEWVATISSDGGDTFYRDSVKGRFTISRDNAKSTLYLQMVSLRSEDTATYYCSTDRGAQFGYWGQGTLVTVSS
VL: DIQMTQSPSFLSASVGDRVSINCKASQNVHENLNWYQQKLGEAPKRLIYNTNNLQTGIPSRFSGSGSGADYTLTISSLQPEDFATYFCLQHNAFPYTFGPGTKLELK
notes: rat hybridoma mAb
Take B2: in assay [8], the binding result is given as “no binding (tested: 2 µg/ml)”.

B3: 1994_01_C07 (antibody, V domains shown)
VH: QVQLVQSGAEVKKPGASVKVSCKASGYTFTSYGISWVRQAPGQGLEWMGWISAYNGNTNYAQKLQGRVTMTTDTSTSTAYMELRSLRSDDTAAYYCARVTGITGTTIDPWGQGTMVTVSS
VL: DIQMTQSPSSLSASVGDRVTITCRASQSISSYLNWYQQKPGKAPKLLIYDASSLESGVPSRFSGSGSGTEFTLTISSLQPDDFAVYYCQQYNNWPQTFGQGTKVEIK
notes: fully human, from phage display, scFv converted to IgG; kappa
In the case of B3, the EC50 in [3] is 7.75 nM; in the assay with Mouse CHO-α11 it was 29 nM; in assay [9], 0.53 µg/mL and 3.5 nM. In assay [10], the binding result was “no binding (tested: 300 nM)”. Further, in the assay with recombinant human α11β1 [6], the Kd was 0.77 nM. Moreover, the koff with recombinant human α11β1 [7] was determined as 0.000289 s⁻¹. Also, in the assay with recombinant human α11β1 [7], the kon was determined as 374000 M⁻¹ s⁻¹.

B4: 79E3E3 (antibody, V domains shown)
VH: QIQLVQSGPEVKKPGESVKISCKASGYTFTDYAMNWVKQAPGNGLKWMGWINTQTGKPTYADDFKQRFVFSLETSARTTYLQINNLNIEDTATYFCTRLGTGNTKGFAYWGQGTLVTVSS
VL: DILINQSPASLTVSAGERVTMSCKSSQSLLYSENNQDYLAWYQQKPGQFPKLLIYGASNRHTGVPDRFTGSGSGTDFTLTISSVQAEDLADYYCEQTYRYPFTFGSGTKLEIK
notes: rat hybridoma mAb
On to B4, for which, in assay [11], the “IC50 of blocking cell adhesion to type I collagen” value turned out to be 9.4 nM. For the same molecule, in the assay with recombinant mouse α11β1 [12], the binding result is reported as “binds”. Moreover, the EC50 is 7.3 nM in assay [3]; 3.5 nM in the assay with Mouse CHO-α11; 0.5 µg/mL and 3.35 nM in assay [9]. Besides, the Kd with recombinant human α11β1 [6] worked out at 0.01 nM. The koff with recombinant human α11β1 [7] was 0.000108 s⁻¹. Further, the on-rate (kon) with recombinant human α11β1 [7] came to 1.07e+07 M⁻¹ s⁻¹.

B5: 24E4G6 (antibody, V domains shown)
VH: EVQLVESGGSLVQPGGSLKLSCVASGYTFSNYWMDWVRQSPGKSLEWIGEINTDGRRTNYAPSIKDRFTISRDNAKSTLYLQMSNVKSDDTAIYYCTILRVYPHYFDYWGQGVMVTVSS
VL: DVVMTQTPPSLSVAIGQSVSISCKSSQSLVYSDGETYLHWFLQSPGRSPKRLIYHVSNLGSGVPDRFSGTGSLTDFTLRISRVEAEDLGVYYCAQTTHFPPTFGAGTKLELK
notes: rat hybridoma mAb
Take B5: the figures for the binding result (in assay [13]; in the assay with recombinant human α11β1 [14]; in [8]) were “binds”, “binds” and “no binding (tested: 2 µg/ml)”, respectively.

B6: A11B1_16E10 (antibody, V domains shown)
VH: QSLEESGGDLVKPGASLTLTCRVSGFSFSSSYYMCWVRQAPGKGLEWIACIGTTRGSTYYATWAKGRFTISKISSTTVTLQMTSLTDADTATYFCARDATGYRINTIGLYFNLWGPGTLVTVSS
VL: AFELTQTPSSVEAAVGGTPTIKCQASQTIYSYLSWYQQKPGQPPKLLIYEASKLASGVPSRFSGSGSGTDYTLTISDLECADAATYYCQSYHGTASTEYNTFGGGTEVVVRG
notes: recombinant rabbit IgG, full chains
For B6, in assay [15], the “IC50, inhibition of adhesion of CHO-α11 cells to rat tail type I collagen” value worked out at 0.39 nM. Further, the binding result with recombinant mouse α11β1 [12] was “no binding”; in assay [10] it was “no binding (tested: 300 nM)”. Also, the EC50 is 0.35 nM in assay [3]; 0.051 µg/mL and 0.3 nM in [9]. The Kd with recombinant human α11β1 [6] was found to be 0.048 nM. Also, the koff with recombinant human α11β1 [7] came out at 0.000234 s⁻¹.

Usually EC50 (read off the curve) stands for the concentration giving half of the maximal effect. As usually defined, the EC50 is the midpoint of the concentration-response curve. For orientation: Kd means the equilibrium constant for the complex coming apart. The term koff denotes the first-order rate constant of dissociation. A word on the kon: it is the rate constant with which the complex forms.
